Measured values as given in article PMC12924673 (Science (New York, N.Y.), 2024).

B1: full-length (FL) BCL11A, recombinant (natural protein, UniProt Q9H165-1 1-835, looked up)
chain: MSRRKQGKPQHLSKREFSPEPLEAILTDDEPDHGPLGAPEGDHDLLTCGQCQMNFPLGDILIFIEHKRKQCNGSLCLEKAVDKPPSPSPIEMKKASNPVEVGIQVTPEDDDCLSTSSRGICPKQEHIADKLLHWRGLSSPRSAHGALIPTPGMSAEYAPQGICKDEPSSYTCTTCKQPFTSAWFLLQHAQNTHGLRIYLESEHGSPLTPRVGIPSGLGAECPSQPPLHGIHIADNNPFNLLRIPGSVSREASGLAEGRFPPTPPLFSPPPRHHLDPHRIERLGAEEMALATHHPSAFDRVLRLNPMAMEPPAMDFSRRLRELAGNTSSPPLSPGRPSPMQRLLQPFQPGSKPPFLATPPLPPLQSAPPPSQPPVKSKSCEFCGKTFKFQSNLVVHRRSHTGEKPYKCNLCDHACTQASKLKRHMKTHMHKSSPMTVKSDDGLSTASSPEPGTSDLVGSASSALKSVVAKFKSENDPNLIPENGDEEEEEDDEEEEEEEEEEEEELTESERVDYGFGLSLEAARHHENSSRGAVVGVGDESRALPDVMQGMVLSSMQHFSEAFHQVLGEKHKRGHLAEAEGHRDTCDEDSVAGESDRIDDGTVNGRGCSPGESASGGLSKKLLLGSPSSLSPFSKRIKLEKEFDLPPAAMPNTENVYSQWLAGYAASRQLKDPFLSFGDSRQSPFASSSEHSSENGSLRFSTPPGELDGGISGRSGTGSGGSTPHISGPGPGRPSSKEGRRSDTCEYCGKVFKNCSNLTVHRRSHTGERPYKCELCNYACAQSSKLTRHMKTHGQVGKDVYKCEICKMPFSVYSTLEKHMKKWHSDRVLNNDIKTE

Legend:
[1] = target: recombinant ZnF0 of BCL11A; experiment: dynamic light scattering
[2] = target: recombinant ZnF0 of BCL11A; experiment: AUC
[3] = target: recombinant ZnF0 of BCL11A; experiment: crystal structure
[4] = target: recombinant ZnF0 of BCL11A; experiment: native gel or EMSA
native gel or EMSA = target: the molecule itself; experiment: native gel or EMSA

| Molecule | stoichiometry N [1] | stoichiometry N [2] | stoichiometry N [3] | stoichiometry N [4] | binding result (native gel or EMSA) |
| --- | --- | --- | --- | --- | --- |
| recombinant ZnF0 of BCL11A (domain or fragment) | 4 | 4 | 4 | 4 |  |
| B1 |  |  |  |  | binds |
